Broadly, the Kd is the constant that tells how readily two partners part at equilibrium. High values mean lower affinity, low ones higher affinity. A word on the koff: it is the first-order rate constant of dissociation. Read a high koff as a short-lived complex.

Where a chain is given by its changes, count along the chain named.

Data on 30 molecules can be found in patent publication US20100135997A1 (MEDGENE, published 2010).

B1: SEQ ID NO 60 (receptor)
chain: MGHLPKPTLWAEPGSVITMDQPVTLRCQGGQETQQYRLYREKKTAPWITRIPQELVKKGQFPIPSITWEHAGRYRCYYGSDTRQWSASSDPLELVVTGVYIKPTLSAQPSPVVNSGGNVTLQCDSQVAFDGFILCKEGEDDHPQCLNSQPHARGSSRAIFSVGPVSPSRRWRYRCYAYDSNSPYEWTRGSDLLELDVDG
notes: mutated soluble two domain ILT-2
B2: SEQ ID NO 109 (receptor)
chain: MHLPKPTLWAEPGSVITMDQPVTLRCQGGQETQEYRLYREKKTAPWITRIPQELVKKGQFPIPSITWEHAGRYRCYYGSDTSQWSASSDPLELVVTGVYIKPTLSAQPSPVVNSGGNVTLQCDSQVAFDGFILCKEGEDEHPQCLNSQPHARGSSRAIFSVGPVSPSRRWWYRCYAYDSNSPYEWSLPSDLLELDVDG
notes: as for B1
B3: SEQ ID NO 107 (receptor)
chain: MGHLPKPTLWAEPGSVITMDQPVTLRCQGGQETQEYRLYREKKTAPWITRIPQELVKKGQFPIPSITWEHAGRYRCIGRSQTSQWSASSDPLELVVTGIYLAPTLSAQPSPVVNSGGNVTLQCDSQVAFDGFILCKEGEDEHPQCLNSQPHARGSSRAIFSVGPVSPSRRWWYRCYAYDSNSPYEWSLPSDLLELLVL
notes: as for B1
B4: SEQ ID NO 108 (receptor)
chain: B3 chain with M19L, D20G
notes: as for B1
B5: SEQ ID NO 26 (receptor)
chain: MHLPKPTLWAEPGSVITLQSPVTLRCQGGQETQQYRLYREKKTAPWITRIPQELVKKGQFPIPSITWEHAGRYRCYYGSDTRQWSASSDPLELVVTGVYIKPTLSAQPSPVVNSGGNVTLQCDSQVAFDGFILCKEGEDDHPQCLNSQPHARGSSRAIFSVGPVSPSRRWRYRCYAYMNWAPYEWSLPSDLLELDVDG
notes: as for B1
B6: SEQ ID NO 122 (receptor)
chain: B2 chain with S79T, D80Q
notes: as for B1
B7: SEQ ID NO 112 (receptor)
chain: B2 chain with K41R
notes: as for B1
B8: SEQ ID NO 126 (receptor)
chain: B2 chain with L187D
notes: as for B1
B9: SEQ ID NO 119 (receptor)
chain: B2 chain with Y76M, Y77Q, G78Y, S79T, D80L, S82A, Q83G, W84R, A86E
notes: as for B1
B10: SEQ ID NO 28 (receptor)
chain: B5 chain with N179S
notes: as for B1
B11: SEQ ID NO 115 (receptor)
chain: B2 chain with M18L, D19R, Q20S
notes: as for B1
B12: SEQ ID NO 113 (receptor)
chain: B2 chain with M18L, D19G
notes: as for B1
B13: SEQ ID NO 124 (receptor)
chain: B2 chain with L145D
notes: as for B1
B14: SEQ ID NO 110 (receptor)
chain: B2 chain with W171R
notes: as for B1
B15: SEQ ID NO 125 (receptor)
chain: B2 chain with I158E
notes: as for B1
B16: SEQ ID NO 49 (receptor)
chain: B5 chain with V22L, N179S, A181S
notes: as for B1
B17: SEQ ID NO 111 (receptor)
chain: B2 chain with R49L, E140G, R173W
notes: as for B1
B18: SEQ ID NO 121 (receptor)
chain: B2 chain with S79G, D80Q, T81E, S82G, Q83A, W84R, A86E
notes: as for B1
B19: SEQ ID NO 50 (receptor)
chain: B5 chain with V22L, N179S
notes: as for B1
B20: SEQ ID NO 27 (receptor)
chain: B5 chain with M178P, N179A, A181T
notes: as for B1
B21: SEQ ID NO 117 (receptor)
chain: B2 chain with M18L, D19E, Q20S
notes: as for B1
B22: SEQ ID NO 120 (receptor)
chain: B2 chain with Y76V, Y77I, G78Q, S79R, D80G, S82A, Q83G, W84R, A86E
notes: as for B1
B23: SEQ ID NO 116 (receptor)
chain: B2 chain with M18L, D19Q, Q20S
notes: as for B1
B24: SEQ ID NO 118 (receptor)
chain: B2 chain with S79T, D80Q, S82A, Q83G, W84R, A86E
notes: as for B1
B25: SEQ ID NO 127 (receptor)
chain: B2 chain with C134S, C144S
notes: as for B1
B26: SEQ ID NO 42 (receptor)
chain: B5 chain with V22L, M178D, N179S, W180N, A181S
notes: as for B1
B27: SEQ ID NO 114 (receptor)
chain: B2 chain with M18L, D19G, Q20S
notes: as for B1
B28: SEQ ID NO 29 (receptor)
chain: B5 chain with N179S, A181S
notes: as for B1
B29: SEQ ID NO 67 (receptor)
chain: MHLPKPTLWAEPGSVITMDQPVTLRCQGGQETQEYRLYREKKTAPWITRIPQELVKKGQFPIPSITWEHAGRYRCYYGSDTSQWSASSDPLELVVTGVYIKPTLSAQPSPVVNSGGNVTLQCDSQVAFDGFILCKEGEDEHPQCLNSQPHARGSSRAIFSVGPVSPSRRWWYRCYAYDSNSPYEWSLPSDLLELDVDGC
notes: as for B1
B30: soluble truncated variant of the Wild-Type ILT-2 molecule (domains D1 and D2) (receptor)
chain: MGHLPKPTLWAEPGSVITQGSPVTLRCQGGQETQEYRLYREKKTAPWITRIPQELVKKGQFPIPSITWEHAGRYRCYYGSDTAGRSESSDPLELVVTGAYIKPTLSAQPSPVVNSGGNVTLQCDSQVAFDGFILCKEGEDEHPQCLNSQPHARGSSRAIFSVGPVSPSRRWWYRCYAYDSNSPYEWSLPSDLLELLVL
notes: the entry carries the N-terminal Met used for bacterial expression; also called soluble wild-type ILT-2; soluble variant of wild-type ILT-2

In the first assay the target is T1, HLA-A*0201 loaded with the Carcinoembryonic antigen (CEA)-derived … peptide (biotin on the C-terminal biotinylation tag).
T1 construct: Soluble, biotinylated, immobilised on a streptavidin chip
The experiment in a line: Biacore SPR. An outline of the steps:
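Surface plasmon resonance: soluble ILT-like molecule flowed at constant rate over flow cells bearing biotin-tag-captured peptide–MHC. Binding followed as RU change to derive affinity and kinetics.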
Background: Surface plasmon resonance follows binding to a sensor surface in real time, without labels.
As for B1, the dissociation constant Kd was ≤ 1000 nM and the koff was ≤ 2 s⁻¹.
The corresponding values for B2 are ≤ 1000 nM and ≤ 2 s⁻¹.
On the same counts, the results for B3 are ≤ 1000 nM and ≤ 2 s⁻¹.
The corresponding values for B4 are ≤ 1000 nM and ≤ 2 s⁻¹.
Regarding B5, the dissociation constant Kd was ≤ 1000 nM and the koff was ≤ 2 s⁻¹.
The corresponding values for B6 are ≤ 1000 nM and ≤ 2 s⁻¹.
The corresponding values for B7 are ≤ 1000 nM and ≤ 2 s⁻¹.
B8: the dissociation constant Kd is ≤ 1000 nM and the off-rate constant (koff) is ≤ 2 s⁻¹.
Consider B9, for which the dissociation constant Kd is ≤ 1000 nM and the koff is ≤ 2 s⁻¹.
On the same counts, the results for B10 are ≤ 1000 nM and ≤ 2 s⁻¹.
On the same counts, the results for B11 are ≤ 1000 nM and ≤ 2 s⁻¹.
On the same counts, the results for B12 are ≤ 1000 nM and ≤ 2 s⁻¹.
Consider B13, for which the equilibrium dissociation constant (Kd) is ≤ 1000 nM and the koff was ≤ 2 s⁻¹.
The corresponding values for B14 are ≤ 1000 nM and ≤ 2 s⁻¹.
The corresponding values for B15 are ≤ 1000 nM and ≤ 2 s⁻¹.
On the same counts, the results for B16 are ≤ 1000 nM and ≤ 2 s⁻¹.
In the case of B17, the dissociation constant (Kd) was ≤ 1000 nM and the off-rate constant (koff) is ≤ 2 s⁻¹.
The corresponding values for B18 are ≤ 1000 nM and ≤ 2 s⁻¹.
The corresponding values for B19 are ≤ 1000 nM and ≤ 2 s⁻¹.
On the same counts, the results for B20 are ≤ 1000 nM and ≤ 2 s⁻¹.
On to B21, for which the dissociation constant (Kd) was ≤ 1000 nM and the koff is ≤ 2 s⁻¹.
For B22, the Kd was ≤ 1000 nM and the off-rate (koff) is ≤ 2 s⁻¹.
The corresponding values for B23 are ≤ 1000 nM and ≤ 2 s⁻¹.
The corresponding values for B24 are ≤ 1000 nM and ≤ 2 s⁻¹.
As for B25, the dissociation constant Kd is ≤ 1000 nM and the off-rate (koff) is ≤ 2 s⁻¹.
Regarding B26, the dissociation constant (Kd) was ≤ 1000 nM and the koff is ≤ 2 s⁻¹.
B27: the Kd is ≤ 1000 nM and the koff was ≤ 2 s⁻¹.
On the same counts, the results for B28 are ≤ 1000 nM and ≤ 2 s⁻¹.
Regarding B29, the Kd was ≤ 1000 nM and the off-rate (koff) is ≤ 2 s⁻¹.

The target of a further assay is T1, HLA-A*0201 loaded with the …. The experiment in a line: Biacore SPR, biotinylated pMHC immobilised on streptavidin.
Consider B30, for which the dissociation constant (Kd) is ~6000 nM and the koff amounted to 2.4 s⁻¹.
